The target in the assay is Photorhabdus luminescens TcdA1 (TcA subunit of the Tc toxin) (P. luminescens) (UniProt Q9RN43). The experiment in a line: cryo-EM structure.

A word on the stoichiometry N: it is the number of molecules, sites or subunits per partner or assembly. “Photorhabdus luminescens TcdA1 (TcA subunit of the Tc toxin), Q9RN43 1-2516” registered a stoichiometry N of 5.
